Reference: the supplement of paper PMC10724198

Legend:
Saccharomyces cerevisiae [1] = assay: protein stability index of tFT-peptide fusion in wild type (PSI (0-1 scale)); higher = more stable (slower turnover); conditions: genetic background: wild type
Experimental: (§1)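 MPS profiling in S. cerevisiae of two library types built from selected 12-aa C-degron peptides (IN1, IN2, LN1, LN3, VN2, R1-R5, W1-W3, Atg1 and Rpa12 C-termini): saturation mutagenesis libraries and C-terminal +1 capping libraries (13 aa). Each peptide is fused to the C-terminus of a sfGFP-mCherry timer, after a GGGS linker. Cells are FACS-sorted into 8 mCherry/sfGFP bins and sequenced. PSI runs from 0 (unstable) to 1 (stable), measured once in wild type and in the das1Δ or doa10Δ background.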

Saccharomyces cerevisiae [2] = assay: protein stability index of tFT-peptide fusion in deletion strain of DAS1 (PSI (0-1 scale)); higher = more stable (slower turnover)
Experimental: as §1
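For protein stability index of tFT-peptide fusion in deletion strain of DAS1 in this document: PSI is a weighted mean of each variant's read distribution over the sorted stability bins, computed only for variants having over 10 reads in total.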
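For protein stability index of tFT-peptide fusion in wild type in this document: PSI derived as read-weighted mean over the 8 sorting bins, only variants exceeding 10 total reads kept, mCherry placed adjacent to the peptide and sfGFP distal.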

LVVYLSYVACIN
protein stability index (Saccharomyces cerevisiae [1]): 0.097 | protein stability index (Saccharomyces cerevisiae [2]): 0.142

LVVYMSCVACIN
protein stability index (Saccharomyces cerevisiae [1]): 0.0151 | protein stability index (Saccharomyces cerevisiae [2]): 0.0291

LVVYSSCVACIN
protein stability index (Saccharomyces cerevisiae [1]): 0.0132 | protein stability index (Saccharomyces cerevisiae [2]): 0.0458

LVWYLSCVACIN
protein stability index (Saccharomyces cerevisiae [1]): 0.0133 | protein stability index (Saccharomyces cerevisiae [2]): 0.0212

MSMRWTFRYWVN
protein stability index (Saccharomyces cerevisiae [1]): 0.0515 | protein stability index (Saccharomyces cerevisiae [2]): 0.536

MVVYLSCVACIN
protein stability index (Saccharomyces cerevisiae [1]): 0.0181 | protein stability index (Saccharomyces cerevisiae [2]): 0.0769

NKHKKGQKQKIN
protein stability index (Saccharomyces cerevisiae [1]): 0.122 | protein stability index (Saccharomyces cerevisiae [2]): 0.562

NSLAASFWRVVG
protein stability index (Saccharomyces cerevisiae [1]): 0.147 | protein stability index (Saccharomyces cerevisiae [2]): 0.679

PDFRNHLIKLLN
protein stability index (Saccharomyces cerevisiae [1]): 0.112 | protein stability index (Saccharomyces cerevisiae [2]): 0.619

PDKREHLIKLLN
protein stability index (Saccharomyces cerevisiae [1]): 0.158 | protein stability index (Saccharomyces cerevisiae [2]): 0.716

PDKRKHLIKLLN
protein stability index (Saccharomyces cerevisiae [1]): 0.171 | protein stability index (Saccharomyces cerevisiae [2]): 0.583

PDKRNHCIKLLN
protein stability index (Saccharomyces cerevisiae [1]): 0.148 | protein stability index (Saccharomyces cerevisiae [2]): 0.585

PDKRNHFIKLLN
protein stability index (Saccharomyces cerevisiae [1]): 0.102 | protein stability index (Saccharomyces cerevisiae [2]): 0.603

PDKRNHLIKILN
protein stability index (Saccharomyces cerevisiae [1]): 0.137 | protein stability index (Saccharomyces cerevisiae [2]): 0.663

PDKRNHLIKLAN
protein stability index (Saccharomyces cerevisiae [1]): 0.367 | protein stability index (Saccharomyces cerevisiae [2]): 0.579

PDKRNHLIKLCN
protein stability index (Saccharomyces cerevisiae [1]): 0.22 | protein stability index (Saccharomyces cerevisiae [2]): 0.583

PDKRNHLIKLDN
protein stability index (Saccharomyces cerevisiae [1]): 0.602 | protein stability index (Saccharomyces cerevisiae [2]): 0.613

PDKRNHLIKLFN
protein stability index (Saccharomyces cerevisiae [1]): 0.346 | protein stability index (Saccharomyces cerevisiae [2]): 0.551

PDKRNHLIKLLL
protein stability index (Saccharomyces cerevisiae [1]): 0.332 | protein stability index (Saccharomyces cerevisiae [2]): 0.615

PDKRNHLIKLLNM
protein stability index (Saccharomyces cerevisiae [1]): 0.145 | protein stability index (Saccharomyces cerevisiae [2]): 0.659

PDKRNHLIKLLNS
protein stability index (Saccharomyces cerevisiae [1]): 0.117 | protein stability index (Saccharomyces cerevisiae [2]): 0.669

PDKRNHLIKLLNW
protein stability index (Saccharomyces cerevisiae [1]): 0.571 | protein stability index (Saccharomyces cerevisiae [2]): 0.684

PDKRNHLIKLLR
protein stability index (Saccharomyces cerevisiae [1]): 0.683 | protein stability index (Saccharomyces cerevisiae [2]): 0.643

PDKRNHLIKLNN
protein stability index (Saccharomyces cerevisiae [1]): 0.447 | protein stability index (Saccharomyces cerevisiae [2]): 0.598

PDKRNHLIKLWN
protein stability index (Saccharomyces cerevisiae [1]): 0.314 | protein stability index (Saccharomyces cerevisiae [2]): 0.627

PDKRNHLILLLN
protein stability index (Saccharomyces cerevisiae [1]): 0.114 | protein stability index (Saccharomyces cerevisiae [2]): 0.635

PDKRNHLKKLLN
protein stability index (Saccharomyces cerevisiae [1]): 0.101 | protein stability index (Saccharomyces cerevisiae [2]): 0.616

PDKRPHLIKLLN
protein stability index (Saccharomyces cerevisiae [1]): 0.0997 | protein stability index (Saccharomyces cerevisiae [2]): 0.678

PDKYNHLIKLLN
protein stability index (Saccharomyces cerevisiae [1]): 0.0777 | protein stability index (Saccharomyces cerevisiae [2]): 0.59

PDMRNHLIKLLN
protein stability index (Saccharomyces cerevisiae [1]): 0.0863 | protein stability index (Saccharomyces cerevisiae [2]): 0.757

PDYRNHLIKLLN
protein stability index (Saccharomyces cerevisiae [1]): 0.0727 | protein stability index (Saccharomyces cerevisiae [2]): 0.607

PELAASFWRVVG
protein stability index (Saccharomyces cerevisiae [1]): 0.2 | protein stability index (Saccharomyces cerevisiae [2]): 0.694

PKHKKGQKQKIN
protein stability index (Saccharomyces cerevisiae [1]): 0.0768 | protein stability index (Saccharomyces cerevisiae [2]): 0.747

PSAAASFWRVVG
protein stability index (Saccharomyces cerevisiae [1]): 0.174 | protein stability index (Saccharomyces cerevisiae [2]): 0.678

PSHAASFWRVVG
protein stability index (Saccharomyces cerevisiae [1]): 0.163 | protein stability index (Saccharomyces cerevisiae [2]): 0.697

PSLAASFARVVG
protein stability index (Saccharomyces cerevisiae [1]): 0.622 | protein stability index (Saccharomyces cerevisiae [2]): 0.684

PSLAASFRRVVG
protein stability index (Saccharomyces cerevisiae [1]): 0.665 | protein stability index (Saccharomyces cerevisiae [2]): 0.656

PSLAASFWRPVG
protein stability index (Saccharomyces cerevisiae [1]): 0.656 | protein stability index (Saccharomyces cerevisiae [2]): 0.677

PSLAASFWRSVG
protein stability index (Saccharomyces cerevisiae [1]): 0.168 | protein stability index (Saccharomyces cerevisiae [2]): 0.699

PSLAASFWRVGG
protein stability index (Saccharomyces cerevisiae [1]): 0.676 | protein stability index (Saccharomyces cerevisiae [2]): 0.677

PSLAASFWRVVGH
protein stability index (Saccharomyces cerevisiae [1]): 0.681 | protein stability index (Saccharomyces cerevisiae [2]): 0.707

PSLAASFWRVVGL
protein stability index (Saccharomyces cerevisiae [1]): 0.683 | protein stability index (Saccharomyces cerevisiae [2]): 0.713

PSLAASFWRVVGP
protein stability index (Saccharomyces cerevisiae [1]): 0.684 | protein stability index (Saccharomyces cerevisiae [2]): 0.692

PSLAASFWRVVR
protein stability index (Saccharomyces cerevisiae [1]): 0.688 | protein stability index (Saccharomyces cerevisiae [2]): 0.685

PSLAASFWRVWG
protein stability index (Saccharomyces cerevisiae [1]): 0.38 | protein stability index (Saccharomyces cerevisiae [2]): 0.696

PSLAASFWYVVG
protein stability index (Saccharomyces cerevisiae [1]): 0.655 | protein stability index (Saccharomyces cerevisiae [2]): 0.708

PSLAASIWRVVG
protein stability index (Saccharomyces cerevisiae [1]): 0.143 | protein stability index (Saccharomyces cerevisiae [2]): 0.69

PSLAASSWRVVG
protein stability index (Saccharomyces cerevisiae [1]): 0.167 | protein stability index (Saccharomyces cerevisiae [2]): 0.694

PSLAESFWRVVG
protein stability index (Saccharomyces cerevisiae [1]): 0.482 | protein stability index (Saccharomyces cerevisiae [2]): 0.685

PSLALSFWRVVG
protein stability index (Saccharomyces cerevisiae [1]): 0.183 | protein stability index (Saccharomyces cerevisiae [2]): 0.669

PSLASSFWRVVG
protein stability index (Saccharomyces cerevisiae [1]): 0.165 | protein stability index (Saccharomyces cerevisiae [2]): 0.696

PSLAWSFWRVVG
protein stability index (Saccharomyces cerevisiae [1]): 0.0943 | protein stability index (Saccharomyces cerevisiae [2]): 0.724

PSLNASFWRVVG
protein stability index (Saccharomyces cerevisiae [1]): 0.159 | protein stability index (Saccharomyces cerevisiae [2]): 0.699

PSPAASFWRVVG
protein stability index (Saccharomyces cerevisiae [1]): 0.115 | protein stability index (Saccharomyces cerevisiae [2]): 0.69

PTKRNHLIKLLN
protein stability index (Saccharomyces cerevisiae [1]): 0.114 | protein stability index (Saccharomyces cerevisiae [2]): 0.582

PVVYLSCVACIN
protein stability index (Saccharomyces cerevisiae [1]): 0.0343 | protein stability index (Saccharomyces cerevisiae [2]): 0.0265

QKHKKGQKQKIN
protein stability index (Saccharomyces cerevisiae [1]): 0.0918 | protein stability index (Saccharomyces cerevisiae [2]): 0.676

RDIQPLPVQFLN
protein stability index (Saccharomyces cerevisiae [1]): 0.0918 | protein stability index (Saccharomyces cerevisiae [2]): 0.596

REIQPLPVQFLN
protein stability index (Saccharomyces cerevisiae [1]): 0.121 | protein stability index (Saccharomyces cerevisiae [2]): 0.61

RLEQPLPVQFLN
protein stability index (Saccharomyces cerevisiae [1]): 0.0758 | protein stability index (Saccharomyces cerevisiae [2]): 0.574

RLIAPLPVQFLN
protein stability index (Saccharomyces cerevisiae [1]): 0.0614 | protein stability index (Saccharomyces cerevisiae [2]): 0.738

RLIFPLPVQFLN
protein stability index (Saccharomyces cerevisiae [1]): 0.0304 | protein stability index (Saccharomyces cerevisiae [2]): 0.553

RLILPLPVQFLN
protein stability index (Saccharomyces cerevisiae [1]): 0.0596 | protein stability index (Saccharomyces cerevisiae [2]): 0.589

RLIMPLPVQFLN
protein stability index (Saccharomyces cerevisiae [1]): 0.0368 | protein stability index (Saccharomyces cerevisiae [2]): 0.572

RLIQFLPVQFLN
protein stability index (Saccharomyces cerevisiae [1]): 0.00974 | protein stability index (Saccharomyces cerevisiae [2]): 0.539

RLIQKLPVQFLN
protein stability index (Saccharomyces cerevisiae [1]): 0.0183 | protein stability index (Saccharomyces cerevisiae [2]): 0.589

RLIQPHPVQFLN
protein stability index (Saccharomyces cerevisiae [1]): 0.0682 | protein stability index (Saccharomyces cerevisiae [2]): 0.776

RLIQPLPFQFLN
protein stability index (Saccharomyces cerevisiae [1]): 0.0405 | protein stability index (Saccharomyces cerevisiae [2]): 0.624

RLIQPLPLQFLN
protein stability index (Saccharomyces cerevisiae [1]): 0.0437 | protein stability index (Saccharomyces cerevisiae [2]): 0.619

RLIQPLPVLFLN
protein stability index (Saccharomyces cerevisiae [1]): 0.0545 | protein stability index (Saccharomyces cerevisiae [2]): 0.542

RLIQPLPVQFDN
protein stability index (Saccharomyces cerevisiae [1]): 0.668 | protein stability index (Saccharomyces cerevisiae [2]): 0.624

RLIQPLPVQFLI
protein stability index (Saccharomyces cerevisiae [1]): 0.0642 | protein stability index (Saccharomyces cerevisiae [2]): 0.537

RLIQPLPVQFLP
protein stability index (Saccharomyces cerevisiae [1]): 0.62 | protein stability index (Saccharomyces cerevisiae [2]): 0.57

RLIQPLPVQFMN
protein stability index (Saccharomyces cerevisiae [1]): 0.0175 | protein stability index (Saccharomyces cerevisiae [2]): 0.614

RLIQPLPVQFRN
protein stability index (Saccharomyces cerevisiae [1]): 0.533 | protein stability index (Saccharomyces cerevisiae [2]): 0.609

RLIQPLPVQFVN
protein stability index (Saccharomyces cerevisiae [1]): 0.0426 | protein stability index (Saccharomyces cerevisiae [2]): 0.598

RLIQPLPVQFWN
protein stability index (Saccharomyces cerevisiae [1]): 0.132 | protein stability index (Saccharomyces cerevisiae [2]): 0.618

RLIQPLPVVFLN
protein stability index (Saccharomyces cerevisiae [1]): 0.047 | protein stability index (Saccharomyces cerevisiae [2]): 0.565

RLIQPLPVWFLN
protein stability index (Saccharomyces cerevisiae [1]): 0.0563 | protein stability index (Saccharomyces cerevisiae [2]): 0.609

RLIQPLSVQFLN
protein stability index (Saccharomyces cerevisiae [1]): 0.0547 | protein stability index (Saccharomyces cerevisiae [2]): 0.594

RLIQPLTVQFLN
protein stability index (Saccharomyces cerevisiae [1]): 0.065 | protein stability index (Saccharomyces cerevisiae [2]): 0.608

RLIQTLPVQFLN
protein stability index (Saccharomyces cerevisiae [1]): 0.0873 | protein stability index (Saccharomyces cerevisiae [2]): 0.594

RLKQPLPVQFLN
protein stability index (Saccharomyces cerevisiae [1]): 0.181 | protein stability index (Saccharomyces cerevisiae [2]): 0.559

RNIQPLPVQFLN
protein stability index (Saccharomyces cerevisiae [1]): 0.0759 | protein stability index (Saccharomyces cerevisiae [2]): 0.61

RPIQPLPVQFLN
protein stability index (Saccharomyces cerevisiae [1]): 0.0515 | protein stability index (Saccharomyces cerevisiae [2]): 0.593

RRWRVGLWRGAS
protein stability index (Saccharomyces cerevisiae [1]): 0.389 | protein stability index (Saccharomyces cerevisiae [2]): 0.684

RVIQPLPVQFLN
protein stability index (Saccharomyces cerevisiae [1]): 0.0531 | protein stability index (Saccharomyces cerevisiae [2]): 0.576

RWIQPLPVQFLN
protein stability index (Saccharomyces cerevisiae [1]): 0.0536 | protein stability index (Saccharomyces cerevisiae [2]): 0.686

SSMRWTFRYWVN
protein stability index (Saccharomyces cerevisiae [1]): 0.113 | protein stability index (Saccharomyces cerevisiae [2]): 0.608
